Experimental data: US6949357

Target: rabbit polyclonal antiserum against the BL172 synthetic peptide of SEQ ID NO: 20
Assay: competition Western blot; antiserum pre-incubated overnight at 4 C with varying concentrations of peptide immunogen

## TQTCGNCTFRVCFEQCCPWTFMVKLINQNCD [BL172 synthetic peptide of SEQ ID NO: 20]
  concentration of peptide at which antibody binding to the band was inhibited: 2.9 µM
